# Assay results reported in patent US5574007A, “Polypeptide capable of interacting with thrombin” (Asahi Kasei Kogyo Kabushiki Kaisha, priority 1990, dated 1996).
# Columns and labels:
# [1] = target: T1, thrombin-catalyzed activation of protein C (Homo sapiens, UniProt P00734); test: Activity to promote the activation of protein C (Example 9-(4)); format: biochemical
# T1 construct: are added 50 μg/ml protein C, 5 nM thrombin and 5 nM of each of the purified polypeptides
# Procedure: With respect to the polypeptide purified in Example 9-(3), the activity to promote the activation of protein C is measured according to the following method. That is, 10 μl of a peptide solution (10 nM), 10 μl of thrombin (15 nM), 10 μl of protein C (3.2 μM), 10 μl of 10×Assay buffer [0.5M Tris HCl (pH 7.5) containing 1% BSA, 1M NaCl and 20 mM CaCl2 ] and 60 μl of distilled water are mixed together. The mixture is reacted at 37° C. for one hour, and antithrombin III and hepalin are added at final concentrations of 100 nM and lu/ml, respectively, thereby stopping the reaction. To measure the concentration of activated protein C, the concentration of AMC ([…]) liberated from a 200 μM substrate of Boc-Leu-Ser-Thr-Arg-MCA in a buffer containing 0.05M Tris HCl (pH 8.0) and 0.1M CsCl is measured at an excitation wavelength of 380 nm and a measuring wavelength of 440 nm.
# [2] = target: thrombin (Homo sapiens, UniProt P00734); test: Capability of binding to thrombin of thrombomodulin deletion polypeptides; details: expressed in COS-1 cells, purified
# [3] = tested on: thrombin-catalyzed platelet aggregation; test: Platelet aggregation-inhibiting activity (Platelet Rich Plasma, HEMA TRACER IV); format: cell-based; details: polypeptide in molar amount equal to or more than thrombin; polypeptide from COS-1 or CHO cells
# Procedure: The activity of each of the polypeptides of the present invention to inhibit the thrombin-catalyzed platelet aggregation is evaluated using platelet aggregation measuring apparatus HEMA TRACER IV (manufactured and sold by NIKO Bioscience, Inc., Japan). Measurement is carried out according to the manual attached thereto. When 40 μl of a 20 NIH unit/ml thrombin solution (manufactured and sold by SIGMA Chemical Co., U.S.A., T 6759) is added to 180 μl of a Platelet Rich Plasma (PRP) platelet solution (3×10^5 cells/μl) and incubated, the aggregation of platelets occurs. […] The aggregation of platelets is determined on the basis of the transparency, assuming the transparency of Platelet Poor Plasma (PPP) solution as 100%. The ratio of platelet aggregation is plotted against the incubation time (0 min: the time when thrombin or a mixture of thrombin and one of the polypeptides is added to the PRP solution). It is confirmed that the platelet aggregation is inhibited when one of the polypeptides of the present invention is added.
# [4] = target: T1, thrombin-catalyzed activation of protein C; test: Activated protein C formation against reaction time with purified polypeptide (Example 4-(6)); format: biochemical
# Procedure: To 0.02M Tris-HCl buffer (pH 8.5) containing 0.1M NaCl, 0.5 mM CaCl2 and 10 mg/ml BSA are added 50 μg/ml protein C, 5 nM thrombin and 5 nM of each of the purified polypeptides of the present invention, and reacted at 37° C. To each of the reaction mixtures are added 300 μg/ml antithrombin III (manufactured and sold by Sigma Chemical Company, U.S.A.) and 5 mM EDTA to terminate the reaction. Then, the amount of the activated protein C produced by the reaction is determined by the method described in Example 1-(3) in which a synthetic substrate is used.
# [5] = target: T2, thrombin-catalyzed conversion of fibrinogen to fibrin (Homo sapiens, UniProt P00734); test: Anticoagulating activity: clotting time of a fibrinogen solution; format: biochemical; details: 0 to 50 nM polypeptide, 10 nM thrombin; polypeptide from COS-1 or CHO cells
# T2 construct: Then, 10 nM thrombin is added to the mixture
# Procedure: The activity of each of the polypeptides of the present invention to inhibit the thrombin-catalyzed conversion of fibrinogen to fibrin so as to inhibit blood coagulation, is determined by measuring clotting time using Coagulometer KC-10A (manufactured and sold by Heinrich Amelung A.G., Germany). Illustratively stated, to 0.05M Tris-HCl buffer (pH 7.5) containing 5 mM CaCl2 and 0.1M NaCl is added 3.0 μg of fibrinogen (Fraction I, manufactured and sold by Sigma Chemical Company, U.S.A.). To the resultant mixture is added 0 to 50 nM of each of the purified polypeptides of the present invention. Then, 10 nM thrombin is added to the mixture in such an amount that the total amount of the mixture becomes 0.4 ml, and then the coagulation time of the mixture is measured.
molecule,measurement,setting,value
E45: polypeptide of the 367th to 442nd amino acid residues of human thrombomodulin (pSV2TMD9) (protein) DPCFRANCEYQCQPLNQTSYLCVCAEGFAPIPHEPHRCQMFCNQTACPADCDPNTQASCECPEGYILDDGFICTDI,activity relative to that of the 114-amino acid polypeptide,[1],about one-tenth
same,production of activated protein C,"[1]; peptide solution 10 nM, thrombin 15 nM, protein C 3.2 μM, 37° C., one hour",1.7 pmol
polypeptide comprised of the 407th to 480th amino acid residues of human thrombomodulin: deletion polypeptide expressed in COS-1 cells using vector pSV2 (protein) FCNQTACPADCDPNTQASCECPEGYILDDGFICTDIDECENGGFCSGVCHNLPGTFECICGPDSALVRHIGTDC,capability of binding to thrombin (in words),[2],had the capability of binding to thrombin
polypeptide comprised of the 366th to 442nd amino acid residues of human thrombomodulin: deletion polypeptide expressed in COS-1 cells using vector pSV2 (protein) VDPCFRANCEYQCQPLNQTSYLCVCAEGFAPIPHEPHRCQMFCNQTACPADCDPNTQASCECPEGYILDDGFICTDI,capability of binding to thrombin (in words),[2],had the capability of binding to thrombin
"E456GlaAsp: polypeptide from PTTM2 CHO cells transfected with pSV2PTTMM6 (prothrombin leader), gamma-carboxyglutamic acid confirmed (protein, gamma-carboxyglutamic acid (Gla) in place of the Glu inserted before Asp367 (third residue of the purified polypeptide, where Edman degradation detected no amino acid); Gla confirmed by amino acid anal) PVEDPCFRANCEYQCQPLNQTSYLCVCAEGFAPIPHEPHRCQMFCNQTACPADCDPNTQASCECPEGYILDDGFICTDIDECENGGFCSGVCHNLPGTFECICGPDSALVRHIGTDC",thrombin-catalyzed platelet aggregation (in words),[3],inhibited
same,amount of activated protein C with reaction time (in words),"[4]; 5 nM polypeptide, 5 nM thrombin, 50 μg/ml protein C, 37° C., polypeptide from COS-1 or CHO cells",increased with the lapse of reaction time
same,"amount of protein C activated, larger than in the presence of E456Glu",[4]; 30 min after the polypeptide addition,80%
same,clotting time of fibrinogen solution against amount of polypeptide (in words),[5],the longer the clotting time
